Laboratory results reported in article PMC4576209, “Biochemical characterization of FIKK8 – A unique protein kinase from the malaria parasite Plasmodium falciparum and other apicomplexans” (Molecular and Biochemical Parasitology, 2015).

Substrate: Nc1ncnc2c1ncn2[C@@H]1O[C@H](COP(=O)(O)OP(=O)(O)OP(=O)(O)O)[C@@H](O)[C@H]1O
Assay: LDH-PK coupled kinase assay
Assay type: biochemical, Cryptosporidium parvum
Details: peptide substrate; MgCl2 stated only for autophosphorylation

B1: CpFIKKd (Cryptosporidium parvum Iowa II) (protein)
chain: GKNDKVCYTWKEAKQLISKLKSSTKLYKFNGVPFSDWAHEKIPTLGASPTSCRVQEMFKSRIYLEKNNEVYATLFIKKIPRNIWSKQWEMHEIWDGDYVTDGEDFVMEAAALAFLQNHSVGIAPRLYAILEHCEDNCNDINSNKESKIQYRNIANRNACDYLLSKDTTHIILVSEHYGEDLLDYLDKCEKKNRNLTDKEKKELQYKLALALNNLHSKGLCHLDFTPENILIGPNGINICDFAKSTPIITKNPRHTHYSRKSPKNHLSENFNSNNTSFNFINPPPEAYCEFESCEPTVGKGAYMPPECWKIFWRLEENKIQFPLEELMDIDTYNRRSNYSYFNEFSRIHNKSPIKCQDRSMFYFNTRIADIYMLGIIMFWIWSDGGIWKYSDTRQDHRYQNLVFSDINFDVFRECRGWNKQLKSLLKKMLEPDPNKRITMSEILSDPWWKCPLDE
notes: kinase domain plus N-terminal extension (38 or more residues); E. coli
  Km: 48.0 ± 0.9 µM
  kcat: 1.3 ± 0.0083 s⁻¹
  kcat/Km: 26700 M⁻¹ s⁻¹
